Laboratory results taken from patent US8835609B2, “Antigen binding sites to non-functional oligomeric P2X7 receptors and methods of use thereof” (Biosceptre International Limited, priority 2009, dated 2014).

Legend:
[1] = molecular target: T1, red blood cells expressing function-capable P2X7 receptor (Mus musculus, UniProt Q9Z1M0); assay: Binding to red blood cells in tumour sections; type: in vivo; details: adjacent red blood cells in Lewis Lung tumour section
T1 construct: from tissue; host or cells: red blood cells in formalin-fixed Lewis Lung tumour sections from antibody-treated mice
T1 sequence (Q9Z1M0 1-595): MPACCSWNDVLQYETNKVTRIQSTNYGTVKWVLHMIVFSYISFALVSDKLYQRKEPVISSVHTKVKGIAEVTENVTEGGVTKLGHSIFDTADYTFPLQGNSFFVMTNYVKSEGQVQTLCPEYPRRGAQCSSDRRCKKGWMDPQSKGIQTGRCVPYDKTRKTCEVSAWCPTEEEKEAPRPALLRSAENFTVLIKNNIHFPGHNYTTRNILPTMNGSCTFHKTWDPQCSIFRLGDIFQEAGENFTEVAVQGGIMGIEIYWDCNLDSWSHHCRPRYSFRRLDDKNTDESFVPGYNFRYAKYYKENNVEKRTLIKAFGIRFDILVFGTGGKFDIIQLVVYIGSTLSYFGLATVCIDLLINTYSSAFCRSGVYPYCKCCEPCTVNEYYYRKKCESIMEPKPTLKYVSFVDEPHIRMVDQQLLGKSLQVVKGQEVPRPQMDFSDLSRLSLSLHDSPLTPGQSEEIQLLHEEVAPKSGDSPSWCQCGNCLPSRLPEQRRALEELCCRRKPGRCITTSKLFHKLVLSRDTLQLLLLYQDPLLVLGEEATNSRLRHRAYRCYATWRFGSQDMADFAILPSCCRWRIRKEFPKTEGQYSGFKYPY
Description: Female BALB/c mice inoculated with the orthotopic syngeneic 4T1 murine mammary tumours in their third mammary fat pads or NOD/SCID female mice inoculated with the orthotopic human Hep3b xenograft tumour in their livers were treated intravenously with either a human domain antibody (2-2-1 hFc) directed at a monomeric target (epitope E200 on P2X7) or 2F6-hIgG1 directed at the compound epitope E200-300. All procedures approved by the Animal Ethics Committee at The University of Adelaide (M46-2008). Antibody penetration into the tumours was measured using Jackson Immunosearch goat anti-human antibody on tumour sections that were removed from the mice two days post antibody treatment. The tumours were fixed in 10% neutral buffered formalin for 48 hours, embedded in paraffin, sectioned to 5 um, deparaffinized, and stained for human antibody. The Biocare Mach 4 secondary detection system was used, comprising a specific goat antibody probe followed by a polymer with HRP then stained with DAB.

[2] = system: 4T1 mouse breast tumour cells; assay: 4T1 syngeneic xenograft model, lung metastases; type: in vivo; set-up: number of lung metastases, % of control / average metastasis volume, % of control / reduction of total metastasis volume / total metastasis volume, % of control: concentration or dose not given beside the values; details: Day 14
Description: Reagents for culture of 4T1 mouse breast tumour cells were obtained from the following suppliers: RPMI 1640 cell culture medium, FCS, Glutamax, HBSS and penicillin-streptomycin from Invitrogen Australia (Mt Waverley, VIC, Australia); and Trypan Blue from Sigma-Aldrich (Castle Hill, NSW, Australia). Matrigel™ was obtained from BD Biosciences (North Ryde, NSW, Australia).
Tumour cells (Passage 2 from working stock) were cultured in RPMI 1640 cell culture medium, supplemented with 10% FCS, 1% Glutamax and 1% penicillin-streptomycin. The cells were harvested by trypsinisation, washed twice in HBSS and counted. The cells were then resuspended in HBSS:Matriger™ (1:1, v/v) to a final concentration of 5×10^7 cells/mL.
(§1) Dosing occurred every 3 days at antibody concentrations of 1 or 10 mg/kg i.v. or with PBS for treatment control or Sorafenib at 5 mL/kg daily as a positive control in the Lewis Lung model. Mice were randomised into equal groups of 10 mice, based on tumour volume on Day 0 of the studies.
(§2) Mice were anaesthetised for blood collection and euthanised by exsanguination via terminal cardiac bleed 48 hours post-final dose, on Days 11 or 14 post-initial treatment.
(§3) The lungs were excised from all mice. Lung surface metastases were counted and were categorised according to size: small (<1 mm), medium (≧1 mm and <3 mm) and large (≧3 mm). Excised lungs were preserved in 10% neutral buffered formalin.

Lewis Lung (LL) tumour = assay: Lewis Lung (LL) syngeneic xenograft model, lung metastases; type: in vivo, mouse; details: Day 11
Description: as §1, §2, §3
The syngeneic Lewis Lung model was used with additional control groups. Besides the PBS control group of ten mice (Group 1), a positive control group using daily Sorafenib at 5 mL/kg was included (Group 5) along with antibody treatment groups consisting of sheep affinity purified E200-300 polyclonal antibody at 10 mg/kg (Group 2), 2F6-hIgG1 at 1 mg/kg (Group 3) and 2F6-hIgG1 at 10 mg/kg (Group 4).

B1: 2F6 hIgG1: mouse scFv from 2F6 grafted into a human format of type IgG1, expressed in HEK293 cells (antibody, V domains shown)
VH: DVKLVESGGGLVKLGGSLKLSCAASGFTFSSYYMSWVRQTPEKRLELVAAINSNGGSTYYPDTVKGRFTISRDNAKNTLYLQMSSLKSEDTAFYYCTRHYSSRFFDVWGAGTTVTVSS
VL: MADIVMTQSQKFMSTSVGDRVSVTCKASQNVGTNVAWYQQKPGQSPKALIYSASFRYSGVPDRFTGSGSGTDFTLTISNVQSEDLAEFFCQQYNSYPFTFGSGTRLEIK
[1]
  labelling of red blood cells: entirely unlabelled
[2]; BALBc mice, i.v. every 3 days
  number of lung metastases: 3.4±0.7
[2]
  average metastasis volume: 1.28 mm^3
  average metastasis volume, % of control: 22%
  number of lung metastases, % of control: 53%
  total metastasis volume: 43 mm^3
  total metastasis volume, % of control: 11.8%
[2]; listed as 2F6-hIgG1
  reduction of total metastasis volume: 88%
[2]; listed as 2F6hIgG1
  reduction of total metastasis volume: 89%
Lewis Lung (LL) tumour; antibody 1 mg/kg i.v. every 3 days
  Mean Lung Surface Mets: 0.9
Lewis Lung (LL) tumour; antibody 10 mg/kg i.v. every 3 days
  Mean Lung Surface Mets: 0.2
Lewis Lung (LL) tumour; antibody 10 mg/kg
  inhibition of lung metastases relative to PBS control: 96%
